US20220280543A1, “DDX17 AND NLRC4 TARGETING FOR INFLAMMATORY DISEASES” (University of Virginia Patent Foundation, priority 2019, published 2022)
“Also recorded” adds a separate entry of the source.

Key:
NLRC4 inflammasome = experiment: Flagellin-induced caspase-1 activation in wild type BMDM pre-treated with NRTIs, immunoblot; format: cell-based, mouse; settings: pre-treated 1 hour, flagellin 3 μg/ml (FIG. 31)
Procedure: FIG. 27. NRTI block Flagellin induced NLRC4 inflammasome in BMDM. Wild type BMDM cells were pre-treated with exemplary NRTIs (D4T, 3TC) at 100 μM for 1 hour, and then stimulated with flagellin transfection (3 μg/ml). Supernatant and cell lysate were collected for Caspase-1 detection. […] The caspase-1 (p20) bands are indicated with black arrow.
FIG. 28. NRTI (3TC) blocks flagellin-induced NLRC4 inflammasome in a dose dependent manner. Wild type BMDM cell were pre-treated with indicated dose of NRTI (3TC) for 1 hour, and then stimulated with Flagellin transfection (3 μg/ml). Supernatants were collected for Caspase-1 detection. […] The caspase-1 (p20) bands are indicated with black arrow.
FIG. 31. Modified NRTIs (K8, K9) block flagellin-induced NLRC4 inflammasome in BMDM. Wild type BMDM cell were pre-treated with regular NRTI (D4T, 3TC), the modified NRTIs 3-Methyl-3TC (K9) or 2-Ethyl-AZT (K8), or NLRP3 inhibitors (MCC950, CY-09) for 1 hour, and then stimulated with flagellin transfection (3 μg/ml). Supernatants were collected for secreted caspase-1 detection. […] The caspase-1 (p20) bands are indicated with black arrow.
Nucleoside reverse transcriptase inhibitors (NRTIs) are HIV therapeutics that inhibit retrovirus replication. We have previously shown that NRTIs inhibit P2X7-mediated NLRP3 inflammasome activation by an endogenous retroelement Alu RNA (SEQ ID NO: 86). Activation of NLRP3 inflammasome by Alu RNA (SEQ ID NO: 86) causes the death of retinal pigment epithelium (RPE) in geographic atrophy, a severe form of AMD. […] Currently, multiple NLRP3 inflammasome inhibitors such as MCC950, CY09 are available however, there are no inhibitors of NLRC4. So, a need exists to develop inhibitors of NLRC4 inflammasome to study NLRC4 driven diseases. Here, we show for the first time that NRTIs block flagellin induced NLRC4 inflammasome. We pretreated flagellin transfected BMDMs with DT4 and 3TC to examine caspase-1 activation.
NLRC4 oligomerization is another hallmark of inflammasome activation where high-molecular mass NLRC4 protein complexes are assembled. […]

caspase-1 = experiment: Alu RNA induced caspase-1 activation in THP1 cells after siRNA knockdown; format: cell-based, human; settings: siRNA knockdown (FIGS. 11A, 11B)
From the text: FIGS. 11A and 11B. Ddx17 involved in Alu RNA (SEQ ID NO: 86) induced inflammasome independent of its microprocessor function. DDX17 is a component of microprocessor complexes with DDX5 and Drosha. To test whether the microprocessor function of DDX17 is required for Alu RNA (SEQ ID NO: 86) induced inflammasome, we measured caspase-1 activation in THP cells with DDX5 or Drosha knockdown (siRNA for DDX5: GGAAAUUACAGUUAGAGGU; SEQ ID NO: 89); siRNA for Drosha: GACAAGUUGAUAGGAUAUA; SEQ ID NO: 90). FIG. 11A. siRNA mediated Ddx17 knockdown, but not Ddx5 in THP1 cells, blocked Alu RNA (SEQ ID NO: 86) induced caspase-1 activation. […] The caspase-1 (p20) bands were indicated with black arrows.
We next examined whether DDX5 or DDX17 was the sensor for Alu RNA (SEQ ID NO: 86) induced NLRC4 inflammasome activation. Due to the high degree of similarity in the sequences of DDX5 and DDX17, we designed 3 siRNAs targeting DDX5 alone, DDX17 alone, or both DDX5 and DDX17, and confirmed their target efficiency in THP1 cells (FIG. 11A). […] Therefore, we tested whether Drosha is also involved in SINE RNA-DDX17-NLRC4 axis. […] These observations implicate that DDX17 mediated SINE RNA induced NLRC4 inflammasome is independent of microprocessor function.

[1] = molecular target: Ddx17 (bait of the Ddx complex, Table 3) (UniProt Q92841); experiment: IP tandem mass spectrometry of the Ddx17 complex, mock-treated
Sequence of Ddx17 (bait of the Ddx complex, Table 3) (Q92841 whole entry, one chain of several): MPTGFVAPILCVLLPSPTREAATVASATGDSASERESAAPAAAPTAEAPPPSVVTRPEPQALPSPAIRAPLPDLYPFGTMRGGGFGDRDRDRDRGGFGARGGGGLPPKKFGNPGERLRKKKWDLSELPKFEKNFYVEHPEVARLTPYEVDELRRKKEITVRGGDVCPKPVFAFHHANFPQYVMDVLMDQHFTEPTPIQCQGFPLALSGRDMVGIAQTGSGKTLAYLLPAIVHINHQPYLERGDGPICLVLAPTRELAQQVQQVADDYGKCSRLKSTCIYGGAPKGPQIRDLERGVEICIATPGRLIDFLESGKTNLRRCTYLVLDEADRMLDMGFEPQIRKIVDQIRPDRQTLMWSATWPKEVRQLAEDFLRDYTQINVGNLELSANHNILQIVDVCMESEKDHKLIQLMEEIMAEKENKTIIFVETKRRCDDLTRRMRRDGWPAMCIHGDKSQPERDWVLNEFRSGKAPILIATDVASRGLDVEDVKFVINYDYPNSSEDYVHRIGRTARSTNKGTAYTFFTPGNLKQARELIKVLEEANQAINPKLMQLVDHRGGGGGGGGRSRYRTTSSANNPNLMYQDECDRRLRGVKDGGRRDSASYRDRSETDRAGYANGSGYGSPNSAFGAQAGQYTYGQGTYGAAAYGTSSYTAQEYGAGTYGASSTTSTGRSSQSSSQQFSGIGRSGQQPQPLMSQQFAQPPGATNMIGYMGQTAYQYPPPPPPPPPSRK

[2] = molecular target: Ddx17 (bait of the Ddx complex, Table 3) (UniProt Q92841); experiment: IP tandem mass spectrometry of the Ddx17 complex, Alu RNA-treated
[3] = test system: NLRC4 phosphorylation (site S533); experiment: SINE RNA induced NLRC4 phosphorylation (S533) in BMDM, Western blot; format: cell-based, mouse; settings: SINE RNAs each at 100 pmol, polyI:C 10 μg/ml (FIG. 1)
Procedure: FIG. 1. SINE RNA induced NLRC4 phosphorylation (site S533) in mice macrophage (BMDM). Mouse bone marrow derived macrophage (BMDM) were treated with SINE RNAs (Alu (SEQ ID NO: 86), B1 (SEQ ID NO: 87), and B2 (SEQ ID NO: 88), each at 100 pmol), and polyI:C (10 μg/ml). Phosphorylated Nlrc4 (p-Nlrc4) and total Nlrc4 (t-Nlrc4) were detected by Western blot. Actin is provided as a loading control. The p-NLRC4 bands were indicated by black arrow.
Previous studies have shown that NLRC4 inflammasome activation in response to Salmonella exposure requires two steps for its activation, phosphorylation on Ser533 residue of NLRC4 and NAIP mediated oligomerization of NLRC4. […] Moreover, treatment with SINE RNAs induced caspase-1 p20 cleavage, indicative of inflammasome activation (FIG. 2). For the subsequent experiments in this study, we used Alu RNA (SEQ ID NO: 86) as the stimulus to activate the NLRC4 inflammasome. To date, two kinases are reported to phosphorylate NLRC4 at S533: protein kinase C delta (PKCδ) and leucine rich repeat-containing kinase-2 (LRRK2). To explore the roles of these kinases in Alu RNA (SEQ ID NO: 86) induced NLRC4 phosphorylation, we pretreated BMDMs with pharmacological inhibitors of LRRK2 (GSK2578215A, GSK) and PKCδ (Rottlerin, Rot) respectively.

ASC specks = experiment: SINE RNA induced ASC specks in BMDM, immunofluorescence; format: cell-based, mouse; settings: BMDMs, transfection vs Mock (FIG. 3A)
Procedure: FIGS. 3A and 3B. SINE RNA-induced ASC oligomerization is dependent on NLRC4 (BMDM). FIG. 3A. Immunofluorescence images of endogenous ASC specks and NLRC4 puncta in BMDMs after transfected with Alu (SEQ ID NO: 86) or B2 (SEQ ID NO: 88) RNA or transfection reagents only (Mock). […] Moreover, NLRC4 proteins assembled as puncta, and co-resided with ASC specks. FIG. 3B. ASC oligomerizations were evaluated in wild-type and Nlrc4^−/− BMDMs through cross-linking and western blot. […] The bands of oligomeric ASC protein were indicated by black arrow.
The activated NLRC4 inflammasome undergoes oligomerization by assembling into high-molecular mass multiprotein complexes. We first investigated in situ assembling of NLRC4 and apoptosis speck (ASC) like protein complexes in response to SINE RNA treatment of BMDMs. Immunofluorescence studies show increased NLRC4 and ASC specks in SINE RNA-treated BMDMs compared to mock-treated cells (FIG. 3A). To assess NLRC4 inflammasome assembly, WT and NLRC4 KO BMDM cells were treated with Alu RNA (SEQ ID NO: 86). Disuccinimidyl suberate (DSS) cross-linked lysates were resolved using denaturing SDS-PAGE to detect ASC oligomers and cell lysates were resolved using native polyacrylamide gel electrophoresis (NATIVE-PAGE) to detect NLRC4 oligomerization. […] NLRC4/ASC oligomerization is essential for the cleavage of pro-caspase-1 into its active form p20 and IL-1β release.

Molecule	Peptides [1] [peptides]	Coverage (%) [1] [%]	Coverage (%) [2] [%]	Peptides [2] [peptides]	other results
2-Ethyl-AZT [K8]	–	–	–	–	flagellin induced caspase-1 activation, modified NRTIs (NLRC4 inflammasome): blocked; also recorded: inhibited
3-Methyl-3TC [K9]	–	–	–	–	flagellin induced caspase-1 activation, modified NRTIs (NLRC4 inflammasome): blocked; also recorded: inhibited
DDX5 siRNA: siRNA for DDX5: GGAAAUUACAGUUAGAGGU; SEQ ID NO: 89 (chemistry not fully specified)	–	–	–	–	caspase-1 cleavage in Alu RNA treated THP1 cells (caspase-1): did not do so
Ddx5 (Table 3) (from UniProt P17844 1-614)	10	–	–	–	–
Ddx5 (Table 3) (from UniProt P17844 1-614) (enzyme)	–	17	25	15	–
Nlrp1 (Table 3) (from UniProt Q9C000 1-1473) (receptor)	0	0	6.6	2	–
Nlrp3 (Table 3) (from UniProt Q96P20 1-1036) (receptor)	0	0	3.7	3	–
Nlrp8 (Table 3) (from UniProt Q86W28 1-1048) (receptor)	0	0	2.9	2	–
poly(I:C)	–	–	–	–	NLRC4 phosphorylation on S533 in BMDMs [3]: did not induce
siDrosha: siRNA for Drosha: GACAAGUUGAUAGGAUAUA; SEQ ID NO: 90 (listed as RNA, chemistry not given here)	–	–	–	–	caspase-1 cleavage in Alu RNA treated THP1 cells (caspase-1): did not
B2: mouse SINE B2 RNA, SEQ ID NO: 88 (nucleic acid, Artificially synthesized B2 RNA) GGGCUGGAGAGAUGGCUCAGUGGUUAAGAGCACCUGACUGCUCUUCCAGAGGUCCUGAGUUCAAUUCCCAGCAACCACAUGGUGGCUCACAACCAUCUGUAAUGAGAUCUGAUGCCCUCUUCUGGUGUGUCUGAAGACAGCUACAGUGUACUUACAUAUAAUAAAUAAAUAAAUAAAUAAAUCUUAAAAAAAAAAAAAAGAAAGAAAAA	–	–	–	–	formation of ASC specks (ASC specks): induced the formation of ASC specks; NLRC4 phosphorylation on S533 in BMDMs [3]: induced
